Results reported in patent US20240052029A1 (BIOHENG THERAPEUTICS, published 2024).

B1: 6V8 anti-ROR1 humanized scFv, as chimeric antigen receptor on CAR-T cells (scFv)
scFv: ETTLTQSPATLSVSPGEKVIIRCITSTDIDEDMNWYQQKPGQPPKLLISEGNTLRPGVPSRFSGSGSGTDFTLTISSLQPEDVATYYCLQSNNMPLTFGAGTKLELKGGGGSGGGGSGGGGSQVQLQESGPGLVKPSQTLSLTCTVTAYSITSDYAWNWIRQFPGNKLEWMGYISYSGFTRYNPSLKSRISITRDTSKNQFFLKLNFVTTEDTATYYCARGEITYYFDYWGQGTTLTVSSESKYGPPCPPCPIYIWAPLAGTCGVLLLSLVITLYCKRGRKKLLYIFKQPFMRPVQTTQEEDGCSCRFPEEEEGGCELRVKFSRSADAPAYQQGQNQLYNELNLGRREEYDVLDKRRGRDPEMGGKPRRKNPQEGLYNELQKDKMAEAYSEIGMKGERRRGKGHDGLYQGLSTATKDTYDALHMQALPPR
notes: Humanized from murine ROR1-4
B2: 6V11 anti-ROR1 humanized scFv, as chimeric antigen receptor on CAR-T cells (scFv)
scFv: ETTLTQSPATLSVSPGERAIIRCITSTDIDEDMNWYQQKPGQPPKLLISEGNTLRPGVPSRFSGSGSGTDFTLTISSLQPEDVATYYCLQSNNMPLTFGAGTKLELKGGGGSGGGGSGGGGSQVQLQESGPGLVKPSQTLSLTCTVSAYSITSDYAWNWIRQFPGNKLEWIGYISYSGFTRYNPSLKSRISITRDTSKNQYYLQLNSVTTEDTATYYCARGEITYYFDYWGQGTTLTVSSESKYGPPCPPCPIYIWAPLAGTCGVLLLSLVITLYCKRGRKKLLYIFKQPFMRPVQTTQEEDGCSCRFPEEEEGGCELRVKFSRSADAPAYQQGQNQLYNELNLGRREEYDVLDKRRGRDPEMGGKPRRKNPQEGLYNELQKDKMAEAYSEIGMKGERRRGKGHDGLYQGLSTATKDTYDALHMQALPPR
notes: Humanized from murine ROR1-4
B3: 6V9 anti-ROR1 humanized scFv, as chimeric antigen receptor on CAR-T cells (scFv)
scFv: ETTLTQSPATLSVSPGEKVIIRCITSTDIDEDMNWYQQKPGQPPKLLISEGNTLRPGVPSRFSGSGSGTDFTLTISSLQPEDVATYYCLQSNNMPLTFGAGTKLELKGGGGSGGGGSGGGGSQVQLQESGPGLVKPSQTLSLTCTVSAYSITSDYAWNWIRQFPGNKLEWIGYISYSGFTRYNPSLKSRISITRDTSKNQYYLQLNSVTTEDTATYYCARGEITYYFDYWGQGTTLTVSSESKYGPPCPPCPIYIWAPLAGTCGVLLLSLVITLYCKRGRKKLLYIFKQPFMRPVQTTQEEDGCSCRFPEEEEGGCELRVKFSRSADAPAYQQGQNQLYNELNLGRREEYDVLDKRRGRDPEMGGKPRRKNPQEGLYNELQKDKMAEAYSEIGMKGERRRGKGHDGLYQGLSTATKDTYDALHMQALPPR
notes: Humanized from murine ROR1-4
B4: 6V10 anti-ROR1 humanized scFv, as chimeric antigen receptor on CAR-T cells (scFv)
scFv: ETTLTQSPATLSVSPGERAIIRCITSTDIDEDMNWYQQKPGQPPKLLISEGNTLRPGVPSRFSGSGSGTDFTLTISSLQPEDVATYYCLQSNNMPLTFGAGTKLELKGGGGSGGGGSGGGGSQVQLQESGPGLVKPSQTLSLTCTVTAYSITSDYAWNWIRQFPGNKLEWMGYISYSGFTRYNPSLKSRISITRDTSKNQFFLKLNFVTTEDTATYYCARGEITYYFDYWGQGTTLTVSSESKYGPPCPPCPIYIWAPLAGTCGVLLLSLVITLYCKRGRKKLLYIFKQPFMRPVQTTQEEDGCSCRFPEEEEGGCELRVKFSRSADAPAYQQGQNQLYNELNLGRREEYDVLDKRRGRDPEMGGKPRRKNPQEGLYNELQKDKMAEAYSEIGMKGERRRGKGHDGLYQGLSTATKDTYDALHMQALPPR
notes: Humanized from murine ROR1-4
B5: 6V13 anti-ROR1 humanized scFv, as chimeric antigen receptor on CAR-T cells (scFv)
scFv: ETTLTQSPATLSVSPGEKVIIRCITSTDIDEDMNWYQQKPGQPPKLLISEGNTLRPGVPSRFSSSGSGTDFTLTISSLQPEDVATYYCLQSNNMPLTFGAGTKLELKGGGGSGGGGSGGGGSQVQLQESGPGLVKPSQTLSLTCTVSAYSITSDYAWNWIRQFPGNKLEWIGYISYSGFTRYNPSLKSRISITRDTSKNQYYLQLNSVTTEDTATYYCARGEITYYFDYWGQGTTLTVSSESKYGPPCPPCPIYIWAPLAGTCGVLLLSLVITLYCKRGRKKLLYIFKQPFMRPVQTTQEEDGCSCRFPEEEEGGCELRVKFSRSADAPAYQQGQNQLYNELNLGRREEYDVLDKRRGRDPEMGGKPRRKNPQEGLYNELQKDKMAEAYSEIGMKGERRRGKGHDGLYQGLSTATKDTYDALHMQALPPR
notes: Humanized from murine ROR1-4
B6: 6V12 anti-ROR1 humanized scFv, as chimeric antigen receptor on CAR-T cells (scFv)
scFv: ETTLTQSPATLSVSPGEKVIIRCITSTDIDEDMNWYQQKPGQPPKLLISEGNTLRPGVPSRFSSSGSGTDFTLTISSLQPEDVATYYCLQSNNMPLTFGAGTKLELKGGGGSGGGGSGGGGSQVQLQESGPGLVKPSQTLSLTCTVTAYSITSDYAWNWIRQFPGNKLEWMGYISYSGFTRYNPSLKSRISITRDTSKNQFFLKLNFVTTEDTATYYCARGEITYYFDYWGQGTTLTVSSESKYGPPCPPCPIYIWAPLAGTCGVLLLSLVITLYCKRGRKKLLYIFKQPFMRPVQTTQEEDGCSCRFPEEEEGGCELRVKFSRSADAPAYQQGQNQLYNELNLGRREEYDVLDKRRGRDPEMGGKPRRKNPQEGLYNELQKDKMAEAYSEIGMKGERRRGKGHDGLYQGLSTATKDTYDALHMQALPPR
notes: Humanized from murine ROR1-4

Biological target: T1, ROR1-hFc (Acrobio brand, Cat. No. R01-H5250) protein (UniProt Q01973 30-403)
T1 construct: Bought reagent; not shown: hFc (human Fc, detected with anti-human IgG Fc)
T1 sequence (Q01973 30-403): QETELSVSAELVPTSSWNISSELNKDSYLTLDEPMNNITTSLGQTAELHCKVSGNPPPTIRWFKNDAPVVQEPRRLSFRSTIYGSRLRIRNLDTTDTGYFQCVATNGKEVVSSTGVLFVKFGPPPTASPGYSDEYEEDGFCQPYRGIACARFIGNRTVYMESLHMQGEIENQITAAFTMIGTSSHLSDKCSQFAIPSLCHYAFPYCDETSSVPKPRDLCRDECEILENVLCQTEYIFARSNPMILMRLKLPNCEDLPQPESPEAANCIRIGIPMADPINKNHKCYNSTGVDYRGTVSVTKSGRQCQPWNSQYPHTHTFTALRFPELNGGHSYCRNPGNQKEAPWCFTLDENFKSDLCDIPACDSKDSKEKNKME
Assay: flow cytometry: CAR-T cells stained with ROR1-hFc, then PE anti-human IgG Fc
Experimental: After culturing at 37° C. and 5% CO₂ for 11 days, the above CAR-T cells, ROR1-4 CAR-T-2 cells (replacing the CD8α hinge region in the ROR1-4 CAR-T cells with the IgG4 hinge region) and Wild-type T cells (NT, used as negative control) were incubated with ROR1-hFc (Acrobio brand, Cat. No. R01-H5250) protein for 45 minutes, and after washing, PE anti-human IgG Fc Antibody (Biolegend brand, Cat. No. 410708) was added to incubate for 30 minutes. The expression level of the anti-ROR1 single chain antibody on the CAR-T cells was detected by flow cytometry, and the results are shown in FIG. 4.

Binding result, binds:
B1
B2
B3
B4
B5
B6
